Experimental data reported in paper PMC8008175 (The Journal of Biological Chemistry, 2021).
Substitutions are numbered along the chain they refer to.

Tests used:
[1] = molecular target: Ubp6 UBL UBL (Saccharomyces cerevisiae) (UniProt P43593); details: cited from earlier work
full-length Rpn1 [2] = molecular target: T1, full-length Rpn1 (Saccharomyces cerevisiae, UniProt P38764 1-993); assay: NMR titration; ^1H-^15N spectra of the ^15N-enriched protein or UBL domain with unlabeled Rpn1^FL (equimolar; excess for Ddi1); signal attenuation; 20 mM sodium phosphate, 150 mM NaCl, 1 mM TCEP, pH 6.8; 21-25 °C; details: both partners purified
T1 construct: Rpn1, proteasomal subunit, Saccharomyces cerevisiae, UniProt P38764, full length; Unlabeled in the NMR experiments; also called Rpn1^FL; source: E. coli, purified
T1 sequence (looked up): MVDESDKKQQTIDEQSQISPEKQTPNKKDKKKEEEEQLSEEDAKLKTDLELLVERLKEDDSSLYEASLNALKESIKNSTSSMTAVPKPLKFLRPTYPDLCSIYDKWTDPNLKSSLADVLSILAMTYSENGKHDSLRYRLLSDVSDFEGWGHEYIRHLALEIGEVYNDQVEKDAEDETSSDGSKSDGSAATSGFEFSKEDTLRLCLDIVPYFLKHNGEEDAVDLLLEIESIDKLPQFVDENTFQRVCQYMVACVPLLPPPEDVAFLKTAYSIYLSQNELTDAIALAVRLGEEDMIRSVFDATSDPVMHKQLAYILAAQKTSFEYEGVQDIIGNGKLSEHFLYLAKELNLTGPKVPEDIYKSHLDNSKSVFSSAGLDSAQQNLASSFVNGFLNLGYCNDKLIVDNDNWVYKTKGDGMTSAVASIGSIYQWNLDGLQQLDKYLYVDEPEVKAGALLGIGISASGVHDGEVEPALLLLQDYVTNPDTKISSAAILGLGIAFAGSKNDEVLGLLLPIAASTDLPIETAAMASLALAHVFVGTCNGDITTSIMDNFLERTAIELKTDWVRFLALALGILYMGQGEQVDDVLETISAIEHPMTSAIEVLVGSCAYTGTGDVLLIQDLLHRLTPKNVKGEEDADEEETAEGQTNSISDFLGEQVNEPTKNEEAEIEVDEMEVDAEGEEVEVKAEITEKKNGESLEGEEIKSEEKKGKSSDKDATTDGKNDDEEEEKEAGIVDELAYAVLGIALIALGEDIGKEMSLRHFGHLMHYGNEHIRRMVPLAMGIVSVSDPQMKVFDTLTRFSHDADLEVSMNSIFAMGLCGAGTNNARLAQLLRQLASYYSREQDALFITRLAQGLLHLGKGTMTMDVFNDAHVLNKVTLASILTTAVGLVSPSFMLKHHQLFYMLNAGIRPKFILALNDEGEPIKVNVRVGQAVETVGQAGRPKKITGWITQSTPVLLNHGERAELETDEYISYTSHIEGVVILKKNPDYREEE

Rpn10-UIM = molecular target: T2, Rpn10-UIM (Saccharomyces cerevisiae, UniProt P38886 204-268, Q261Y); assay: NMR titration; ^1H-^15N spectra of 150 μM ^15N-UBL with 1× Rpn10-UIM; signal shifts; details: both partners purified
T2 construct: Rpn10, Saccharomyces cerevisiae, UniProt P38886, residues 204-268 with a Q261Y mutation for quantification purposes; also called UIM domain of Rpn10; source: E. coli, purified
T2 sequence (looked up): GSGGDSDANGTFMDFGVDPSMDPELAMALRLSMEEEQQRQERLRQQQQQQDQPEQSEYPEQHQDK

full-length Rpn1 [3] = molecular target: T1, full-length Rpn1; assay: NMR titration; competition: 150 μM ^15N-UBL with 1× Rpn10-UIM, then 0.3× Rpn1^FL (48 μM), then 2× or 3× Rpn10-UIM; details: both partners purified
Rpn1^356-905 [4] = molecular target: T3, Rpn1^356-905 (Saccharomyces cerevisiae, UniProt P38764 356-905); assay: NMR titration; ^1H-^15N spectra of ^15N-UBL with unlabeled Rpn1^356-905; 50 mM Tris-Cl, 200 mM KCl, 5% glycerol, 5 mM β-mercaptoethanol, pH 7.4; 21-25 °C; details: both partners purified
T3 construct: also called PC repeat region construct; source: E. coli, purified
T3 sequence (looked up): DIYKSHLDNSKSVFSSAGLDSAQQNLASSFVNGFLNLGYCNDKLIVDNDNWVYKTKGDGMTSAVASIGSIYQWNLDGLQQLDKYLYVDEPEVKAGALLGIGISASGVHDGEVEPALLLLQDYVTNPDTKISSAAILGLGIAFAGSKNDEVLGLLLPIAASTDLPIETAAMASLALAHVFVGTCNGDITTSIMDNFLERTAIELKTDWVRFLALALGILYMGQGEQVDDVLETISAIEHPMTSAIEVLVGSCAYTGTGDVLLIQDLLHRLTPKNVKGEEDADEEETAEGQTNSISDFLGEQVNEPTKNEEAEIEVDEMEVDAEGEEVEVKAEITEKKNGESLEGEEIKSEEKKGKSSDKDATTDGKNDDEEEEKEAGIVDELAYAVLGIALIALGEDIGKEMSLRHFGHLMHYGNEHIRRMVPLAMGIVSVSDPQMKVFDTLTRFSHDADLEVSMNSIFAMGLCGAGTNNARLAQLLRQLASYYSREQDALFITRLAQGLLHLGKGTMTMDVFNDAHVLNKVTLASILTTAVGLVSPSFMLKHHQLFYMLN

Rpn1^391-642 [5] = molecular target: T4, Rpn1^391-642 (Saccharomyces cerevisiae, UniProt P38764 391-642); assay: NMR titration; ^1H-^15N spectra, CSPs and ^15N R2 of 150 μM ^15N-UBL or ^15N-^dK48-Ub2 with unlabeled Rpn1^391-642; 50 mM HEPES, 50 mM KCl, 1 mM TCEP, pH 7.6; 21-25 °C; details: both partners purified
T4 construct: Used unlabeled, and ^15N-enriched for the titration with Ubp6-UBL; source: E. coli, purified
T4 sequence (looked up): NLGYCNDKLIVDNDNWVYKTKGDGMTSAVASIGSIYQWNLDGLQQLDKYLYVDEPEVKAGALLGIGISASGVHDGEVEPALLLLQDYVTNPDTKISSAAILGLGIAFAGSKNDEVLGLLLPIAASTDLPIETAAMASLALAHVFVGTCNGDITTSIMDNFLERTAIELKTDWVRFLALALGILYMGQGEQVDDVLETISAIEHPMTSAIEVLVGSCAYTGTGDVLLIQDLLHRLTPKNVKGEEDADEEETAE

Rpn1^356-905 [6] = molecular target: T3, Rpn1^356-905; assay: NMR titration; competition: equimolar ^15N-UBL and Rpn1^356-905 with unlabeled competitor added stepwise (molar ratios 1 and 4); 50 mM Tris-Cl, 200 mM KCl, 5% glycerol, 5 mM β-mercaptoethanol, pH 7.4; 21-25 °C; details: both partners purified
Rpn1^391-642 [7] = molecular target: T4, Rpn1^391-642; assay: NMR titration; unlabeled Ubp6-UBL titrated into ^15N-Rpn1^391-642 or ^15N-Rpn1^391-642(AKAA); CSPs fitted to a single-site binding model, Kd as a global parameter; 50 mM HEPES, 50 mM KCl, 1 mM TCEP, pH 7.6; 21-25 °C; details: both partners purified
Rpn1^391-642(AKAA) = molecular target: T5, Rpn1^391-642(AKAA) (Saccharomyces cerevisiae, UniProt P38764 391-642, L430A | D431K | Q434A | Q435A); assay: as above; details: both partners purified
T5 construct: ^15N-enriched in the titration; source: E. coli, purified
T5 sequence (looked up): T4 sequence (looked up) with L40A, D41K, Q44A, Q45A

## Rpn1 391-642 (from UniProt P38764)
[1]
  Kd: 40 µM

B1: full-length Dsk2 (natural protein, Saccharomyces cerevisiae, UniProt P48510 1-373, looked up)
chain: MSLNIHIKSGQDKWEVNVAPESTVLQFKEAINKANGIPVANQRLIYSGKILKDDQTVESYHIQDGHSVHLVKSQPKPQTASAAGANNATATGAAAGTGATPNMSSGQSAGFNPLADLTSARYAGYLNMPSADMFGPDGGALNNDSNNQDELLRMMENPIFQSQMNEMLSNPQMLDFMIQSNPQLQAMGPQARQMLQSPMFRQMLTNPDMIRQSMQFARMMDPNAGMGSAGGAASAFPAPGGDAPEEGSNTNTTSSSNTGNNAGTNAGTNAGANTAANPFASLLNPALNPFANAGNAASTGMPAFDPALLASMFQPPVQASQAEDTRPPEERYEHQLRQLNDMGFFDFDRNVAALRRSGGSVQGALDSLLNGDV
notes: Dsk2, UBL-UBA shuttle protein, Saccharomyces cerevisiae, UniProt P48510, full length; ^15N-enriched; source: E. coli, purified
full-length Rpn1 [2]
  binding result: binds

B2: Dsk2-UBL (domain or fragment, Saccharomyces cerevisiae)
chain: SLNIHIKSGQDKWEVNVAPESTVLQFKEAINKANGIPVANQRLIYSGKILKDDQTVESYHIQDGHSVHLVKSQPKPLDLQPSLIS
notes: Dsk2, Saccharomyces cerevisiae, UniProt P48510, UBL domain, residues 2-77; also called UBL domain of Dsk2; source: E. coli, purified
Rpn10-UIM
  binding result: binds
full-length Rpn1 [3]
  binding result: binds
Rpn1^356-905 [4]
  binding result: binds
Rpn1^391-642 [5]
  binding result: binds

B3: Rad23-UBL (residues 1-73) (domain or fragment, Saccharomyces cerevisiae, UniProt P32628 1-73, looked up)
chain: MVSLTFKNFKKEKVPLDLEPSNTILETKTKLAQSISCEESQIKLIYSGKVLQDSKTVSECGLKDGDQVVFMVS
notes: ^15N-enriched; source: E. coli, purified
full-length Rpn1 [3]
  binding result: binds

B4: Rad23-UBL (residues 2-77) (domain or fragment, Saccharomyces cerevisiae, UniProt P32628 2-77, looked up)
chain: VSLTFKNFKKEKVPLDLEPSNTILETKTKLAQSISCEESQIKLIYSGKVLQDSKTVSECGLKDGDQVVFMVSQKKS
notes: Rad23, Saccharomyces cerevisiae, UniProt P32628, UBL domain, residues 2-77; also called UBL domain of Rad23; source: E. coli, purified
Rpn1^391-642 [5]
  binding result: binds
Rpn1^356-905 [6]
  binding result: binds
full-length Rpn1 [2]
  binding result: binds

B5: full-length Rad23 (natural protein, Saccharomyces cerevisiae, UniProt P32628 1-398, looked up)
chain: MVSLTFKNFKKEKVPLDLEPSNTILETKTKLAQSISCEESQIKLIYSGKVLQDSKTVSECGLKDGDQVVFMVSQKKSTKTKVTEPPIAPESATTPGRENSTEASPSTDASAAPAATAPEGSQPQEEQTATTERTESASTPGFVVGTERNETIERIMEMGYQREEVERALRAAFNNPDRAVEYLLMGIPENLRQPEPQQQTAAAAEQPSTAATTAEQPAEDDLFAQAAQGGNASSGALGTTGGATDAAQGGPPGSIGLTVEDLLSLRQVVSGNPEALAPLLENISARYPQLREHIMANPEVFVSMLLEAVGDNMQDVMEGADDMVEGEDIEVTGEAAAAGLGQGEGEGSFQVDYTPEDDQAISRLCELGFERDLVIQVYFACDKNEEAAANILFSDHAD
notes: Rad23, UBL-UBA shuttle protein, Saccharomyces cerevisiae, UniProt P32628, full length; ^15N-enriched; source: E. coli, purified
full-length Rpn1 [2]
  binding result: binds

B6: full-length Ubp6 (enzyme, Saccharomyces cerevisiae, UniProt P43593 1-499, looked up)
chain: MSGETFEFNIRHSGKVYPITLSTDATSADLKSKAEELTQVPSARQKYMVKGGLSGEESIKIYPLIKPGSTVMLLGTPDANLISKPAKKNNFIEDLAPEQQVQQFAQLPVGFKNMGNTCYLNATLQALYRVNDLRDMILNYNPSQGVSNSGAQDEEIHKQIVIEMKRCFENLQNKSFKSVLPIVLLNTLRKCYPQFAERDSQGGFYKQQDAEELFTQLFHSMSIVFGDKFSEDFRIQFKTTIKDTANDNDITVKENESDSKLQCHISGTTNFMRNGLLEGLNEKIEKRSDLTGANSIYSVEKKISRLPKFLTVQYVRFFWKRSTNKKSKILRKVVFPFQLDVADMLTPEYAAEKVKVRDELRKVEKEKNEKEREIKRRKFDPSSSENVMTPREQYETQVALNESEKDQWLEEYKKHFPPNLEKGENPSCVYNLIGVITHQGANSESGHYQAFIRDELDENKWYKFNDDKVSVVEKEKIESLAGGGESDSALILMYKGFGL
notes: Ubp6, deubiquitinase with a UBL domain, Saccharomyces cerevisiae, UniProt P43593, full length; source: E. coli, purified
full-length Rpn1 [2]
  binding result: binds

B7: Ubp6-UBL (domain or fragment, Saccharomyces cerevisiae, UniProt P43593 2-81, looked up)
chain: SGETFEFNIRHSGKVYPITLSTDATSADLKSKAEELTQVPSARQKYMVKGGLSGEESIKIYPLIKPGSTVMLLGTPDANL
notes: Ubp6, Saccharomyces cerevisiae, UniProt P43593, UBL domain, residues 2-81; Used ^15N-enriched or unlabeled; also called UBL domain of Ubp6; source: E. coli, purified
Rpn1^391-642 [7]
  Kd: 43 ± 22 µM
Rpn1^391-642(AKAA)
  Kd: 36 ± 21 µM
